T1: Xrs2 (Flag-tagged, recombinant) (S. cerevisiae, UniProt P33301 1-854)
T1 sequence (looked up): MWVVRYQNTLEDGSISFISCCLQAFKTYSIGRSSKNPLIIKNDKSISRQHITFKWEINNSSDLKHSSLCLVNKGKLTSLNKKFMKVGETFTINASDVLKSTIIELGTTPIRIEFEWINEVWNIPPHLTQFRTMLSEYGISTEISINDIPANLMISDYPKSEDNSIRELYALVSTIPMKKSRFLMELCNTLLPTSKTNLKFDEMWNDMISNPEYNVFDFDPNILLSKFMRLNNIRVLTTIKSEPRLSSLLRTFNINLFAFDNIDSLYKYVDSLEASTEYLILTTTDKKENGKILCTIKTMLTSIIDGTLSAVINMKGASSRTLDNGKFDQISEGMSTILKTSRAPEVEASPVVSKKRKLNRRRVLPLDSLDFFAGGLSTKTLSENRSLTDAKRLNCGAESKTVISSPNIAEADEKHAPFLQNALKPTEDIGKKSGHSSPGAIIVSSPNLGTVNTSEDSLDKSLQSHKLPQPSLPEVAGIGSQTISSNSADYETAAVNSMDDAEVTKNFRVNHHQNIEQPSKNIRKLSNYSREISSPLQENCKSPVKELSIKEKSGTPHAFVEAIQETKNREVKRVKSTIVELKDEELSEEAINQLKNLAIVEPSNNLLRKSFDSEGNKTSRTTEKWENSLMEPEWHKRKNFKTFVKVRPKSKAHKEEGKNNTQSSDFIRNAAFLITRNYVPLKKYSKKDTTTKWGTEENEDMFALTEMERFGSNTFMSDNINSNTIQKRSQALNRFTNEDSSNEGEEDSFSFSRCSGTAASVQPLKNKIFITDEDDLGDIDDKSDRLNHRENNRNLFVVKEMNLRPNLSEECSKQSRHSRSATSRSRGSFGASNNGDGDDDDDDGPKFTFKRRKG

T2: Rad50 (S. cerevisiae, UniProt P12753 1-1312)
T2 sequence (looked up): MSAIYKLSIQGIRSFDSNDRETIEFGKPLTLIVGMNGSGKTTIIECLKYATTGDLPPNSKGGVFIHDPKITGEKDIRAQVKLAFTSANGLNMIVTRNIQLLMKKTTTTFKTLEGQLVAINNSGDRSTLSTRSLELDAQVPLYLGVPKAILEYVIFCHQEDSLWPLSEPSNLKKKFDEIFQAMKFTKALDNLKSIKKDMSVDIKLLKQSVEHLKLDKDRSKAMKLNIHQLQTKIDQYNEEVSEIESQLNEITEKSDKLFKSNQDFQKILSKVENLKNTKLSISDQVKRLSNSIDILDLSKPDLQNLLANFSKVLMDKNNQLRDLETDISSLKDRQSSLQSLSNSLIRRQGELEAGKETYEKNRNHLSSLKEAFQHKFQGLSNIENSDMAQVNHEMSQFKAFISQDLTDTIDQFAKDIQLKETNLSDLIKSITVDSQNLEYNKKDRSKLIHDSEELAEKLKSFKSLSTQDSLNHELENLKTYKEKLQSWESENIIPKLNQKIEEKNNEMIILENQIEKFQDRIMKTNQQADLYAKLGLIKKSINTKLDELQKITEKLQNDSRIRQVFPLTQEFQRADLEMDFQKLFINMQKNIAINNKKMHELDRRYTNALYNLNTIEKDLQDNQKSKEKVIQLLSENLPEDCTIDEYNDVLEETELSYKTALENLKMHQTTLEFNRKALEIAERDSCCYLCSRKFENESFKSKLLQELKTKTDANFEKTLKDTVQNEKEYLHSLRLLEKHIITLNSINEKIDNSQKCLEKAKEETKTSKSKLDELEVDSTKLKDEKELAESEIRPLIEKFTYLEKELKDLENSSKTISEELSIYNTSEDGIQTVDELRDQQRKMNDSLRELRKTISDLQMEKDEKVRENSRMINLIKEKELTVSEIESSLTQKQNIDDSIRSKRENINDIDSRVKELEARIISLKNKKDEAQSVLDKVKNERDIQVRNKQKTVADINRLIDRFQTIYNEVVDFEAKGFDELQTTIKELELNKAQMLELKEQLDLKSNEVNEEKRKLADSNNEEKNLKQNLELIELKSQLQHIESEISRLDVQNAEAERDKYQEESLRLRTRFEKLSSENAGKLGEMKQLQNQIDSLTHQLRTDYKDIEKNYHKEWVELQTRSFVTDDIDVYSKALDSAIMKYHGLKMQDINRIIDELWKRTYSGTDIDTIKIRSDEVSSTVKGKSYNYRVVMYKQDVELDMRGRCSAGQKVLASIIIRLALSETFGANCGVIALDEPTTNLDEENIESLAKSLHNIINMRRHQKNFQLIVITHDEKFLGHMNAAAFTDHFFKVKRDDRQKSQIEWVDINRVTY


Key:
[1] = target: T1, Xrs2 (Flag-tagged, recombinant); assay: pull-down
Rad50 = target: T2, Rad50; assay: pull-down

binding result [1]	binding result (Rad50)	Binder
binds	–	His-tagged Mre11 (wild type) (natural protein, S. cerevisiae, UniProt P32829 1-692, looked up) MDYPDPDTIRILITTDNHVGYNENDPITGDDSWKTFHEVMMLAKNNNVDMVVQSGDLFHVNKPSKKSLYQVLKTLRLCCMGDKPCELELLSDPSQVFHYDEFTNVNYEDPNFNISIPVFGISGNHDDASGDSLLCPMDILHATGLINHFGKVIESDKIKVVPLLFQKGSTKLALYGLAAVRDERLFRTFKDGGVTFEVPTMREGEWFNLMCVHQNHTGHTNTAFLPEQFLPDFLDMVIWGHEHECIPNLVHNPIKNFDVLQPGSSVATSLCEAEAQPKYVFILDIKYGEAPKMTPIPLETIRTFKMKSISLQDVPHLRPHDKDATSKYLIEQVEEMIRDANEETKQKLADDGEGDMVAELPKPLIRLRVDYSAPSNTQSPIDYQVENPRRFSNRFVGRVANGNNVVQFYKKRSPVTRSKKSGINGTSISDRDVEKLFSESGGELEVQTLVNDLLNKMQLSLLPEVGLNEAVKKFVDKDEKTALKEFISHEISNEVGILSTNEEFLRTDDAEEMKALIKQVKRANSVRPTPPKENDETNFAFNGNGLDSFRSSNREVRTGSPDITQSHVDNESRITHISQAESSKPTSKPKRVRTATKKKIPAFSDSTVISDAENELGDNNDAQDDVDIDENDIIMVSTDEEDASYGLLNGRKTKTKTRPAASTKTASRRGKGRASRTPKTDILGSLLAKKRK
binds	binds	His-tagged Mre11-R522H (natural protein, S. cerevisiae, UniProt P32829 1-692, looked up) MDYPDPDTIRILITTDNHVGYNENDPITGDDSWKTFHEVMMLAKNNNVDMVVQSGDLFHVNKPSKKSLYQVLKTLRLCCMGDKPCELELLSDPSQVFHYDEFTNVNYEDPNFNISIPVFGISGNHDDASGDSLLCPMDILHATGLINHFGKVIESDKIKVVPLLFQKGSTKLALYGLAAVRDERLFRTFKDGGVTFEVPTMREGEWFNLMCVHQNHTGHTNTAFLPEQFLPDFLDMVIWGHEHECIPNLVHNPIKNFDVLQPGSSVATSLCEAEAQPKYVFILDIKYGEAPKMTPIPLETIRTFKMKSISLQDVPHLRPHDKDATSKYLIEQVEEMIRDANEETKQKLADDGEGDMVAELPKPLIRLRVDYSAPSNTQSPIDYQVENPRRFSNRFVGRVANGNNVVQFYKKRSPVTRSKKSGINGTSISDRDVEKLFSESGGELEVQTLVNDLLNKMQLSLLPEVGLNEAVKKFVDKDEKTALKEFISHEISNEVGILSTNEEFLRTDDAEEMKALIKQVKHANSVRPTPPKENDETNFAFNGNGLDSFRSSNREVRTGSPDITQSHVDNESRITHISQAESSKPTSKPKRVRTATKKKIPAFSDSTVISDAENELGDNNDAQDDVDIDENDIIMVSTDEEDASYGLLNGRKTKTKTRPAASTKTASRRGKGRASRTPKTDILGSLLAKKRK

Source: paper PMC5888019 (Nucleic Acids Research, 2018)
